Among the data in publication doi:10.1101/2024.01.29.577677 are fold increase in affinity relative to BA.2.86 RBD values, retold here.

In this experiment the target is human ACE2 (human) (UniProt Q9BYF1). Kind of experiment: SPR. (In general: Surface plasmon resonance follows binding to a sensor surface in real time, without labels.)
BA.2.86-D450N RBD (domain or fragment) returned a fold increase in affinity relative to BA.2.86 RBD of 3 fold.

Turning to BA.2.86-H445V RBD (domain or fragment), the fold increase in affinity relative to BA.2.86 RBD was 3 fold.

BA.2.86-P486F RBD (domain or fragment) had a fold increase in affinity relative to BA.2.86 RBD of 3 fold.
